Experimental data published in patent US20240026407A1, “MODIFICATION OF SAPONINS” (GLAXOSMITHKLINE BIOLOGICALS SA, priority 2020, published 2024).

Key:
[1] = Example 8: screening of glucosidase variants for deglycosylation of saponins in crude bark extract (FIOP); assay type: biochemical, Quillaja saponaria; details: screen temp 35, pH 6, lysate loading 0.14%, CBE loading 75%, 100 mM Sodium acetate, Rham Present
Method: Libraries of genetic variants encoding mutations in the wild type Modestobacter marinus glucosidase (SEQ ID No. 262) were prepared using molecular biology techniques, enzymes were prepared linked to an N-terminally located His-tag. Single monoclonal colonies were grown in 400 ul of expression medium and protein expressed. Cell pellets were lysed in 200 ul of the relevant buffer (Table 16)
Lysate was diluted appropriately in the relevant buffer to allow a lysate loading of the indicated % loading (1% loading corresponds to use of 2 ul original lysate in a 200 ul reaction). In some experiments a rhamnosidase was also present during the screening reaction (and also in controls, negating any impact on results).
Crude bark extract (CBE) obtained by aqueous extraction of Quillaja saponaria and containing at least 2.80 mg/ml QS-21 (by HPLC-UV). The pH of CBE was adjusted to pH 6 by dropwise addition of 2M NaOH with stirring. The relevant concentration of the relevant glucosidase was added. The appropriate relative volume of pH 6 CBE (160 ul (for 80%) or 150 ul (for 75%)) was added to each well of the reaction plate. The reaction plate was sealed and incubated at the relevant temperature with shaking overnight for between 18 and 22 hours.
The reaction plate was quenched by adding 200 uL of MeCN (2% AcOH, 1 mg/mL hexanophenone) to each well of the plates. The quenched reaction plate was re-sealed and incubated at 20 deg C. with shaking for 10 min. The reaction plate was then centrifuged (10 min, 4 degC).
200 uL was transferred from each well of the quenched plate to the corresponding wells of a fresh 96 well plate and sealed. The plate was analysed by UV HPLC with the method below:
A negative control (a lysate not expressing test enzymes) and a positive control (expressing the parent comparator—wild type or previous variant as appropriate). Fold improvement over parent (FIOP) for the glucosidase (shorter method) is calculated as follows:
% right peak=100*right peak area/(right peak area+left peak area)
Average % right peak area is calculated for negative controls (per plate) and subtracted from all wells to give the increase in % right peak for each well above average negative control Average increase in % right peak is calculated for positive controls per plate
FIOP=observed increase in % right peak divided by average positive control increase

[2] = Example 10: deglucosylation of saponins in crude bark extract (50%) using WT and engineered glucosidases G1 to G5; assay type: biochemical, Quillaja saponaria; details: 50% CBE, 35 degC; for % change in Left Peak / % change in Middle Peak / % change in Right Peak / Cumulative Fold improvement in primary enzyme loading × time / Fold improvement in primary enzyme loading × time / % Right Peak / % Left Peak / % Middle Peak: 4 h; for % Right Peak: starting CBE 26; for % Left Peak: starting CBE 30; for % Middle Peak: starting CBE 44
Method: Lyophilised powders from clarified cell lysate expressing glucosidases (from Example 8 WT glucosidase and engineered glucosidase polypeptides G1 to G5) and rhamnosidases (from Example 9 WT rhamnosidase and engineered rhamnosidase polypeptides R1 to R5) were dissolved in 200 mM sodium acetate aqueous solution at pH 5.8 to prepare the enzyme solutions at 4 fold the final reaction concentration as shown in Tables 19 and 20.
Each glucosidase solution was combined with an equal volume of 200 mM sodium acetate aqueous solution at pH 5.8 and separately with an equal volume of 200 mM sodium acetate aqueous solution at pH 5.8 containing 2 mg/ml rhamnosidase R5. This is a sufficient loading of rhamnosidase to effect complete hydrolysis of the relevant rhamnose moiety within 4 hours.
CBE was adjusted to pH of 6.0 to 6.2 with 2M sodium hydroxide and an equal volume added to the enzyme solution to prepare the reaction mix (i.e. 50% CBE concentration in reaction mix) and the concentration of glucosidase and/or rhamnosidase is shown in Tables 19 and 20. The reaction mix was heated to 35 degC for the time indicated in Tables 19 and 20, after which the reaction was quenched by addition of an equal volume of MeCN containing 2% acetic acid and shaken at room temperature for 10 mins prior to centrifugation (10 min, 4 degC) to remove particulates. Samples were analysed by UV HPLC using method of Experiment 4-4.
The change in composition of the Left, Middle and Right peaks is shown in Tables 19 and 20. The composition changes by the action of the enzymes depending on the presence or absence of the partner enzyme. The extent of reaction is proportional to the enzyme concentration and the reaction time under these conditions. The tables show data for enzyme concentrations and the reaction times providing for equivalent extents of reaction. The improvement resulting from the mutations introduced for each variant is equal to the fold change in enzyme concentration×time (i.e. fold improvement=(enzyme concentration×time) for preceding variant÷(enzyme concentration×time) for later variant). A cumulative fold improvement over the original enzyme variant is calculated by the product of the individual fold improvements.

[3] = glucosidase 0.1 mg/ml + rhamnosidase R5 0.5 mg/ml
[4] = glucosidase 0.1 mg/ml, no rhamnosidase

B1: Variant G5: engineered glucosidase polypeptide, variant of Modestobacter marinus glucosidase SEQ ID No. 262 (protein)
chain: MNPASSTRTDTMTDTTARTDSRLTDALAALSLEQKVQLLTGRDYWNTWPIEEIGLRRILVSDGPSGVRGEVWDERDPSLNLPSATALASAWDPDIARRYGAAAAVEARRKGVDVVLGPTINLHRSPLGGRHFEAFSEDPVLTAELAAAYVTGVQDNGVGATPKHYVANDFETDRFTVDVRADERTLRELYLLAFEKAVTEARAWLVMSAYNGINGATATENDLLETPLNSEWGFDGVVVSDWTAVRSLESARSSQDLVMPGPLGPWGDALVEAVRTGAIDESVVDRKVLRILTLAQRVGALEGSPAIDPVWVEDGVALAREAAVEGTVLLENRDELPWDATSLRKVAVIGNNAAWAMTQGGGSANVCPEYTVSPLDGVRAALPDAEVSYSLGAVVRDGLVELPLAELTNPVTGGPGLRARFLTADGAELFGEDRRKSVLVYQGGDAPIAAAATYELTARWTPTESQTVRLGFACFGAAQLYVDGELLVESDLQPSGTDLGAAFMNPLTASAEVELVAGKPVDVRLVHDLSAKEGFAAHALILQLGTEPAEVDEDALIAEAAEAAEAADVVLVVVGTNSIVESEGYDRESLSLPGRQDDLVRAVVAANPRTVVLVNAGAPVLLPWRDDVAALLLGWFGGQEFGNAVADVLLGVAEPGGRLPTTWPAAEADVPVLSCTPVDGVVEYTEGIHIGYRAWLRSGATPAYWFGSGQGYTCVELTGVEAPSRARPGEIVTVSVEVANRGERDGKQVVQVYAEKPDSTVDRPVRWLVGSAPVRVPAGQTAQVEVAVPTRYLAHWAGGWQYEPGVYRLRVGTTAVELPLETTLEVSA
modifications: Seq ID No. 262 with mutations F44Y, V263L, R357M, T365N, F442Q, L474C, I475F, F541I, A355W, L367C, Q396R
Cumulative FIOP (cf WT) ([1]; estimate): 900 | FIOP ([1]; fold improvement over parent): 3 | time to complete hydrolysis of the relevant glucose moiety ([2]; 2 mg/ml glucosidase G5 solution (before mixing with rhamnosidase solution and CBE)): ≤ 4 h | cumulative fold improvement over WT glucosidase ([2]; from enzyme concentration x time for equivalent extent of reaction): approximately 800 fold | % change in Left Peak [2, 3]: −34% | % change in Middle Peak [2, 3]: −83% | % change in Right Peak [2, 3]: 280% | Cumulative Fold improvement in primary enzyme loading × time [2, 3]: 834 | Fold improvement in primary enzyme loading × time [2, 3]: 6.5 | % Right Peak [2, 3]: 73% | % Left Peak [2, 3]: 20% | % Middle Peak [2, 3]: 7% | % change in Left Peak [2, 4]: −11% | % change in Middle Peak [2, 4]: −56% | % change in Right Peak [2, 4]: 208% | Cumulative Fold improvement in primary enzyme loading × time [2, 4]: 834 | Fold improvement in primary enzyme loading × time [2, 4]: 6.5 | % Right Peak [2, 4]: 54% | % Left Peak [2, 4]: 27% | % Middle Peak [2, 4]: 19%
